Sequences and labels used below:
B1: 10 kDa anti-sigma factor (Enterobacteria phage T4), P32267 (parent)
chain: MNKNIDTVREIITVASILIKFSREDIVENRANFIAFLNEIGVTHEGRKLNQNSFRKIVSELTQEDKKTLIDEFNEGFEGVYRYLEMYTNK

Variants of B1 are the subject of the experiment. The conditions noted are these: with rpob_ecoli rpoB.
On to N74D, for which the “effect of a mutation on the interaction” value is listed as “decreasing interaction strength”.

These data come from IntAct's records for PubMed 19366670.
